The labels stand for the following.
B1: CPEB3 Ribozyme (parent)
chain: UAACAGGGGGCCACAGCAGAAGCGUUCACGUCGCAGCCCCUGUCAGAUUCUGGUGAAUCUGCGAAUUCUGCUGUAUAUCUC

Variants of B1 are the subject of this data set. Briefly: self-cleavage, relative activity (ratio to wild type); higher = more cleavage; in vitro, sequencing. In outline: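 For each CPEB3 ribozyme variant, relative activity is its cleaved/total read fraction divided by the unmutated ribozyme's. Barcoded error-prone PCR libraries were transcribed by T7 RNA polymerase (5 hours, 37°C) and held in DNase I for 15 min before an EDTA stop, with cleavage occurring throughout. Template-switching reverse transcription and Illumina sequencing were used to read the RNAs. A 5-read minimum applied, and results are the mean of three batches.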
In the case of UAACAGGGGGCCACAGUAGAAGCGUGCACGUCGCAGCCCCUGUCAGAUUCUGGUGAAUCUGCGAAUUCUGCUGUAUAUCUC [C17U U26G], the self-cleavage came to 0.09.

Consider UAACAGGGGGCCACAGCCGAAGCGUUCACGUCGCAGCUCCUGUCAGAUUCUGGUGAAUCUGCGAAUUCUGCUGUAUAUCUC [A18C C38U], for which the self-cleavage is 0.12.

UAACAGGGGGCCACAGCCGAAGCGUUCACAUCGCAGCCCCUGUCAGAUUCUGGUGAAUCUGCGAAUUCUGCUGUAUAUCUC [A18C G30A]: the self-cleavage came to 0.31. For the variant UAACAGGGGGCCACAGUAGAAGCGUUCACGUCGCAGCCCCUGUCAGAUUCUGGCGAAUCUGCGAAUUCUGCUGUAUAUCUC [C17U U54C], the self-cleavage is 0.66. As for UAACAGGGGGCCACAGCCGAAGCGUUCACGUCGCAGCCCCUGUCAGAUUCUGGUGAGUCUGCGAAUUCUGCUGUAUAUCUC [A18C A57G], the self-cleavage was 0.3. Regarding UAACAGGGGGCCACAGUAGAAGCGUUCACGUCGCAGCCCCUGUCAGAUUCUGGUGAAGCUGCGAAUUCUGCUGUAUAUCUC [C17U U58G], the self-cleavage is 0.15.

Consider UAACAGGGGGCCACAGUAGAAGCGUUCACGUCGCAGCCCCUGUCAGAUUCUGGUGAACCUGCGAAUUCUGCUGUAUAUCUC [C17U U58C], for which the self-cleavage came out at 0.17. As for UAACAGGGGGCCACAGUAGAAGCGUUCACGUCGCAGCCCCUGUCAGAUUCUGGUGAAUCUGCGAAUUCUGCUGUAUACCUC [C17U U78C], the figure is 0.63.

In the case of UAACAGGGGGCCACAGCCGAAGCGUUCACGUCACAGCCCCUGUCAGAUUCUGGUGAAUCUGCGAAUUCUGCUGUAUAUCUC [A18C G33A], the self-cleavage turned out to be 0.42. Under UAACAGGGGGCCACAGCCGAAGCGUUCACGUCUCAGCCCCUGUCAGAUUCUGGUGAAUCUGCGAAUUCUGCUGUAUAUCUC [A18C G33U] stands 0.13. For the variant UAACAGGGGGCCACAGUAGAAGCGUUCACGUCGCAGCCCCUGUCAGAUUCGGGUGAAUCUGCGAAUUCUGCUGUAUAUCUC [C17U U51G], the self-cleavage was 0.74.

With UAACAGGGGGCCACAGUAGAAGCGUUCACGUCGCAGCCCCUGUCAGAUUCCGGUGAAUCUGCGAAUUCUGCUGUAUAUCUC [C17U U51C], the self-cleavage came to 0.56. As for UAACAGGGGGCCACAGUAGAAGCGUUCACGUCGCAGCCCCUGUCAGAUUCUGGUGAAUCUGCGAAUCCUGCUGUAUAUCUC [C17U U67C], the figure is 0.22.

For UAACAGGGGGCCACAGCCGAAGCGUUCACGUCGUAGCCCCUGUCAGAUUCUGGUGAAUCUGCGAAUUCUGCUGUAUAUCUC [A18C C34U], the self-cleavage stood at 0.22. Under UAACAGGGGGCCACAGCCGAAGCGUUCACGUCGCAGCCCCUGUCAGAUUCUGGUGUAUCUGCGAAUUCUGCUGUAUAUCUC [A18C A56U] stands 0.14; under UAACAGGGGGCCACAGCCGAAGCGUUCACGUCGCAGCCCCUGUCAGAUUCUGGUGGAUCUGCGAAUUCUGCUGUAUAUCUC [A18C A56G], 0.17.

Take UAACAGGGGGCCACAGUAGAAGCGUUCACGUCGCAGCCCCCGUCAGAUUCUGGUGAAUCUGCGAAUUCUGCUGUAUAUCUC [C17U U41C]: the self-cleavage was found to be 0.32. Under UAACAGGGGGCCACAGUAGAAGCGUUCACGUCGCAGCCCCGGUCAGAUUCUGGUGAAUCUGCGAAUUCUGCUGUAUAUCUC [C17U U41G] stands 0.37; under UAACAGGGGGCCACAGUAGAAGCGUUCACGUCGCAGCCCCAGUCAGAUUCUGGUGAAUCUGCGAAUUCUGCUGUAUAUCUC [C17U U41A], 0.24; under UAACAGGGGGCCACAGCCGAAGCGUUCACGUCGCAGCCACUGUCAGAUUCUGGUGAAUCUGCGAAUUCUGCUGUAUAUCUC [A18C C39A], 0.41.

UAACAGGGGGCCACAGCCGAGGCGUUCACGUCGCAGCCCCUGUCAGAUUCUGGUGAAUCUGCGAAUUCUGCUGUAUAUCUC [A18C A21G]: the self-cleavage turned out to be 0.21. Under UAACAGGGGGCCACAGCCGAAGCGUUCACGUCGCAGCCCCUGUCAGAUUCUGGUGAAUCUGCGAAUUCUGCUGUAUGUCUC [A18C A77G] stands 0.26; under UAACAGGGGGCCACAGUAGAAGCGUUCACGUCGCAGCCCCUGUCAGAUUCUGGUGAAUCUGCGAAUUCUGCUGAAUAUCUC [C17U U74A], 1.02; under UAACAGGGGGCCACAGUAGAAGCGUUCACGUCGCAGCCCCUGUCAGAUUCUGGUGAAUCUGCGAAUUCUGCUGCAUAUCUC [C17U U74C], 0.97. As for UAACAGGGGGCCACAGCCGAAGCGUUCACGUCGCAGCCCCUGUCAGAUUCUGGUGAAUCUGCGGAUUCUGCUGUAUAUCUC [A18C A64G], the figure is 0.38; as for UAACAGGGGGCCACAGUAGAAGCGUUCACGUCGCAGCCCCUGUCAGAUUCUGGUGAAUCUGCGAAUUCCGCUGUAUAUCUC [C17U U69C], 0.21. Under UAACAGGGGGCCACAGUAGAAGCGUUCACGUCGCAGCCCCUGUCAGAUUCUGGUGAAUCUGCGAAUUCAGCUGUAUAUCUC [C17U U69A] stands 0.4; under UAACAGGGGGCCACAGUAGAAGCGUUCACGUCGCAGCCCCUGUCAGAUUCUGGUGAAUCUGCGAAUUCGGCUGUAUAUCUC [C17U U69G], 0.25. As for UAACAGGGGGCCACAGCCGAAGCGUUCACGUCGCAGACCCUGUCAGAUUCUGGUGAAUCUGCGAAUUCUGCUGUAUAUCUC [A18C C37A], the self-cleavage stood at 0.33. As for UAACAGGGGGCCACAGCCGAAGCGUUCACGUCGCUGCCCCUGUCAGAUUCUGGUGAAUCUGCGAAUUCUGCUGUAUAUCUC [A18C A35U], the figure is 0.16; as for UAACAGGGGGCCACAGCCGAAGCGUUCACGUCGCGGCCCCUGUCAGAUUCUGGUGAAUCUGCGAAUUCUGCUGUAUAUCUC [A18C A35G], 1.03; as for UAACAGGGGGCCACAGCCGAAGCGUUCACGUCGCAGCCCCUGUCAGAUUCUGGUGAAUCUGCGAAUUCUGCUGUAUAUAUC [A18C C79A], 0.9.

Regarding UAACAGGGGGCCACAGCCGAAGCGUUCACGUCGCAGCCCCUGUCAGAUUCUGGUGAAUCUGCGAAUUCUGCUGUAUAUCUC [A18C], the self-cleavage came out at 0.41. Turning to UAACAGGGGGCCACAGCCGAAGCGUUCACGUCGCAGCCCCUGUCAGAUUCUGGUGAAUCUGCGAAUUCUGCUGUGUAUCUC [A18C A75G], the self-cleavage was 0.41.

Source of the values: the RNAGym collection of RNA variant scans (doi:10.1093/nar/gkz1192).
